Measurements reported in the supplement of paper PMC9942255.

System: Bacillus subtilis DB104 (SP-AmyQ fusion secretion)
Experiment: AmyQ secretion efficiency, weighted average sort bin (1 = best secretion, 10 = worst) (bin number (weighted average, 1-10)); higher = lower secretion efficiency
How it was run: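 The secretion score was taken as the read-frequency-weighted mean bin number, normalised to beads per bin, with low-abundance sequences excluded. Bins came from large-particle flow cytometry sorting of occupied alginate beads (~65 nL, about 0.3 cells each, with fluorescein-starch) into 10 equally populated groups by green/red fluorescence ratio after about 13 h at room temperature and nile red staining. The cells were a B. subtilis DB104 library with mature AmyQ fused to designed signal peptides, integrated at amyE, and each bin's amplicons were Illumina-sequenced.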

Row | Sequence | AmyQ secretion efficiency
1 | MAIIIAIIAAVIVIAALITFNVANASPG | 5.63
2 | MGTFSTASILLLGILCSAAVFLIGAPSRALGAEV | 2.99
3 | MKKQRKIITATTAVVLGSTLFAGAASAQSI | 1.81
4 | MRPVFPLILSAVLFLSCFFGARQTEASVSKR | 2.77
5 | MRNLTKYYTTLAGLCTAAQMVFVTHASAEES | 3.01
6 | MKSKGSIMACLILFSFTITTFINTETFSAFSN | 7.43
7 | MKKRKKKVSSLFISSAVLLSILLPSGQAHAQSA | 1.03
8 | MTMLRKIIGWILLLCIIPLFAFTVIPVVTVASGKEV | 4.51
9 | MTKAFLVFLSVVLVTTVFLVKQQESVAQAKQL | 5.72
10 | MKKRLIAPMLLSAASLAFFAMSGSSQAAAY | 4.08
11 | MRPVFPLILSAVLFLSCFFGARQTEISASKR | 2.64
12 | MTMLRKIIGWILLLCIIPLFAFTVIASGAPV | 6.61
13 | MLKKIALTLCPAIVGSLLFFTAPCSAHVS | 3.32
14 | MKKWLIIAVSLAIAIVLFMYTKGETKAAGM | 3.24
15 | MFKFKKNFRKKRSAALMSISLFSATASAAST | 4.73
16 | MKRKLLSSLAISALSLGLLVKRRKKKSFAAES | 7.18
17 | MKKRITYSLLALLAVVAFAFTDSSKAKAASA | 2.18
18 | MKKSQYFIVFICFFVLFSVHPIARAAADS | 3.28
19 | MKSKWMSGLLLVAVGFSFTQVMDHAGET | 6.14
20 | MKKKLAAGLTASAVTPAEAATI | 6.26
21 | MRGKSAVLLSLIMLIAGFLISFLFQM | 7.41
22 | MPYLKRVLLLLVTGLFMSLFAVTATISAQTG | 1.51
23 | MFNRLFRVCFLAALIMAFTLPNSVYAKKR | 3.37
24 | MKQIMIFLMIFMLLAMTGQTALAKDV | 4.05
25 | MKRLLVSLRVWMVFLMNWVTPDRKTAAAAKK | 7.3
26 | MKKRFFGPIILAFILFRRRAIAIPS | 7.49

Row | Sequence | AmyQ secretion efficiency
27 | MGCGTQGKGSGIASFPVSAQAKDQ | 6.09
28 | MKKLLSAASLAFFAMSGSAQAAAY | 2.96
29 | MSFVMNIIIALVTILMLSVTSLFALQPSAKAAEH | 2.71
30 | MPYLKRGGLLLVTGLFMSLFAVTATASAQTG | 1.51
31 | MKSCKQLIVCSLAAILLLIPSVSFSTSTGASSFAADS | 6.07
32 | MKKRLIGFLVLVPALIMSGITLIENNKK | 6.74
33 | MAIIIAIIAAVIVIAALITFKKRRKRNASPG | 8.46
34 | MTFTKVVGFLSVLGLAAVFPLTAQAEKA | 3.02
35 | MKRRRRKIWTIILGALLVCCIAVAYTLTKSQAGASSS | 5.49
36 | MFMKHTISLLIIFLLASAVLAKPIEAHTV | 2.89
37 | MLFLLVSLRVWMVFLMNWVTPDRKTAAAAVY | 6.62
38 | MLKKKWVGLLAGCLAAGGFSYNAFATEN | 4.85
39 | MKWMCSICCAAVLLAGGASQAEAV | 3.1
40 | MRSYIKVLTMCFLGLILFVPTSLADNS | 2.69
41 | MKLAKRVSALTPSTTLAITGKAKEL | 7.09
42 | MFKKGYSSYRKRTFSLSLVLPLDGHAKAQEV | 7.96
43 | MKKQWIGMLAAAVLLLMVPKVSLADAA | 2.86
44 | MLKKKWMVGLLAGCLAAGGFSYNAFMTEN | 6.25
45 | MKKRLIAPMLLSAASLAFFAMSGSAQHAAY | 7.18
46 | MTSAFILSAAAAVGLFTFGGVQQASAKEL | 2.86
47 | MKVCQKSIVRFLVSLIIGTFVISVPFMANFQSD | 5.64
48 | MGLGKKLSVAVAASFMSLSISLSPGVQAAEG | 1.19
49 | MKKFLVSLIIGTFVISVPFMANAQSD | 1.69
50 | MKSCKQLIVCSLAAILLLIPSVSFAAPR | 1.96
51 | MKKAFLVFLMVVLVLMVFLTVKQQESVAQAKQL | 3.05
52 | MLCKRRKRKSAIASFPVSAQAKDQ | 6.78

Row | Sequence | AmyQ secretion efficiency
53 | MKKQIITATTAVVLGSTLFAGAASIQSI | 5.61
54 | MKSKWMSGLLLVAVGFSFTQVMWHAGET | 7.01
55 | MKVPKTMLLSTAAGLLLSLTATSRSAHYV | 6.25
56 | MNKFLKSNFRYYTTGALGISLLASSNFIKASND | 7
57 | MFKKHTISLLIIFLLASAVLAKPCEAHTV | 2.62
58 | MLTKRLLTIYIMLLGLIAWFPGAAQAAKK | 4.2
59 | MKRRFMKASLVLFAVVFVFAVKGAPAKAETH | 2.6
60 | MKYCQKSISRFLVSLIIGTFVISVPFMANAQSD | 3.17
61 | MKSKGSIMACLILFSFTITTFINTETISTFSN | 7.54
62 | MMIGQCVICLSLLVFGTTAAHAEET | 4.07
63 | MKKVMLATALFLPAGANAADL | 7.34
64 | MPYLKRVLLLLVTGLFMSLFAVTATASDQTG | 1.01
65 | MLKKIALTLCPAIVGSLLFFTAPESAHVS | 5.94
66 | MKRLLVSLRVWMPDRKTAAAAVY | 6.76
67 | MKKKKRKFVLIVCIIFTSALFPTFSSVTAAQG | 1.03
68 | MLCVMMLLFSAIASFPVSIQAKDQ | 6.18
69 | MKKKQVSHAIIISVMLSFVIAVFRRHRKHASELTP | 7.4
70 | MPYLKRVLLLLVTGLFMSLFAVTATASFQTG | 2.53
71 | MKRFLIGAGVAAVILDDEEEADHQTHSQEM | 7.2
72 | MAAQTDYKKQVVGILLSLAFVLFVFSPSERHE | 5.34
73 | MKRFSTAYLLLGILCSAAVFLIGAPSRALGARR | 7.6
74 | MTRLLSTLLIGIMLLTFAPSAFAKQD | 1.6
75 | MLTKRLLTIYIMLLMLIAWFPGAAQAEEK | 1.61
76 | MFKKHTISLLIIFLLASAVLAKPIERHTV | 5.58
77 | MKLKKRVSMFLVALTMCGGLFVTPVKAVKT | 2.64
78 | MKKRFFGPIILAFILFAGLIAIPS | 5.16

Row | Sequence | AmyQ secretion efficiency
79 | MPYLKRVLLLLVTGLFMSLFRKRRKRASAQTG | 6.94
80 | MLKKIALTLCPAIVGSLLFFTAPSSAHVS | 3.86
81 | MAIIIAIIAAVIVIAALITFNVRNWSPG | 8.18
82 | MKLSVKIAGVLTVAAAAMTAKMYKTAKGN | 7.2
83 | MTKKAWFLPLVCVLLISGWLAASAQTT | 6.17
84 | MKLSVKIAGVLTVAAAAMTAKMYRTAKGN | 7.39
85 | MKKIWIGMLAAAVLLLMVPKVMLADAA | 4.26
86 | MPYLKRVLLLLVTGLFMSLFAVTATASQQTG | 1.51
87 | MKSKGSIMACLILFSFTITTFINTETGSAFSN | 5.58
88 | MLLNLAAGLTASAIVGTTLVVTPAEAATI | 6.11
89 | MRGKSAVLLSLIMLIAGFLISFEFQM | 5.74
90 | MKRIRIPMTLALGAALTIAPLSFASAADE | 2.12
91 | MLKKKWMVGLLAGCLAAGFFGYNAFATEN | 6.85
92 | MKLSVKIAGVLTVAAAAMTAKMYATAADD | 6.81
93 | MTRFILVLSFLSIIVAYPIQTNASPM | 5.75
94 | MKSKWMSGLLLVAVGFSFTQVMVHNGET | 8.98
95 | MKKVLMAFIICLSLILSVLAAPPSGHKAESV | 7.55
96 | MNTAIIIAIIAAVIVIAALITFNVRNASPG | 8.06
97 | MPGKSAVLLSLIMLIAGFLISFSFQM | 7.65
98 | MKTKTLFIFSAILTLSIFASTITLSAFAPNETFAQTA | 3.01
99 | MKKVILAAFILVGSTLGAFSFSSDASAKHV | 2.08
100 | MKKRLIAPMLLSAASLAFFAMSGSAQCAAY | 6
101 | MKKSKQSGRLFLGLTPAGANAADL | 6.97
102 | MIKAAAVLLSLGLVFGFSYGAGHVAEAKTK | 2.3
103 | MKSKWMSGLLLVAVGFSFTLFSSAVVSTQVMVHAGET | 7.18
104 | MLKKIALTLCPAIVGSLLFFTVILITAPASAHVS | 3.87

Row | Sequence | AmyQ secretion efficiency
105 | MRKKTKNRLISSQKSTVVISSLLFPGAAGASSK | 8.12
106 | MKKIAGVLTVAAAAMTAKMYATAKGN | 7.41
107 | MTKKAWFLPLVCVLLISGWLAPAASKSAQTT | 4.7
108 | MSNMSCMLVVSVTLFFSFLTIGPLAHAQNS | 1.7
109 | MKRMIVRMTLMMTLPLLIVCLAFSSFSASARAASE | 2.08
110 | MKRLLVSLRVWMVFLMNWVTPDRKTAAAAVY | 6.49
111 | MKLSVKIAGVLTVAAAAMEDDMYATAKGN | 6.49
112 | MKSKWMSGLLLVAVGFSFTQVMVHGGET | 7.46
113 | MKKAFLVFLSVVLVTTVFLVKQQESVAQTKQL | 2.14
114 | MKRLLVSLRVWMVFLMNWVTPDRKTNAAAVY | 6.68
115 | MKSRTIWTIILGALCIAVAYTLTKSQAGASSS | 8.18
116 | MKRRRRPMRLALGAALTIAPLSFASAEEN | 5.86
117 | MRMLWRSLALCGLALTLAPCVQAAEP | 1.79
118 | MKKKIVAGLAVSAVVDEDEEAAPAEAKTI | 5.93
119 | MGLGKKLSVAVAASFMSLSISLPGWQAAEG | 5.06
120 | MTMLRKKTGWILLLCIIPLFAFTVIASGKEV | 3.88
121 | MFNRLFRYCTLAALIMAFTLPNSVYAQKP | 1.93
122 | MTMLRKIIGWILLLCIIPLFAFTVIESGKEV | 6.44
123 | MRSKKLWISLLFALTLIFTMAFSNMSAQPAGK | 3.56
124 | MNFKKTVVSALSISALALSVSGVASAHSD | 2.93
125 | MKKKKYVVLVLSIAGIGGFSVHAASS | 6.5
126 | MKKKLAAGLTASAIVGTVTPAEAATI | 5.84
127 | MRPVFPLILSAVLFLSCFFGARQTETSASKR | 5.36
